Assay results: the supplement of paper PMC12764529
± gives the half width of the 95% confidence interval.

Assays:
[1] = folding stability dG unfold from trypsin proteolysis; higher = more stable
In short: (§1)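 Digests were run with trypsin and chymotrypsin at 11 concentrations in threefold dilutions, plus a no-protease condition, on designed mini-proteins in a PA-tagged cDNA display construct. The mini-proteins were under 80 residues, had no cysteine, and were kept only when AlphaFold2 dimer inter-PAE was above 15. After sequencing, Bayesian fitting of the counts gave K50, from which unfolding free energy was derived against a sequence-predicted unfolded-state K50 and a shared folded-state K50, per protease or combined.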

[2] = folding stability dG unfold from chymotrypsin proteolysis; higher = more stable
In short: as §1

[3] = folding stability dG unfold (combined trypsin and chymotrypsin); higher = more stable
In short: as §1

Sequence | folding stability dG unfold [1] | folding stability dG unfold [2] | folding stability dG unfold [3]
SAGGSAGGSAGPVRTIEILFPFDPGESLEFEIRIPGNGRKIKVSIEPYPNGWMRIKITVYSAGGSAGGSAGG [r17_131_TrROS] | 4.75 ± 0.21 kcal/mol | 5.68 ± 0.26 kcal/mol | 5.69 ± 0.21 kcal/mol
SAGGNPASATVTINEDILVNGSPEEARALVEARAKAEGITITDVTITPVPGDPSVYRVSATFSKTLASAGGS [r8_479_JUSTAS] | 1.91 ± 0.038 kcal/mol | 1.9 ± 0.1 kcal/mol | 1.87 ± 0.15 kcal/mol
SAGGSAGGSDPLVSFPLEVELPGGEKVELHFIPGPRLVIARFPDRPVLFYTDGDGVITRVDPISAGGSAGGS [r12_47_TrMRF] | 0.337 ± 0.059 kcal/mol | -0.362 ± 0.11 kcal/mol | 0.0465 ± 0.064 kcal/mol
SAGGSAGGMAKVKILKIKPVNTGEDGSKSVEIEVEFENPNPEVAKAFVEEIAKKLGFEEVEDTTSAGGSAGG [r6_317_TrMRF] | 0.43 ± 0.079 kcal/mol | 0.687 ± 0.15 kcal/mol | 0.406 ± 0.28 kcal/mol
SAGGSAGGSMKTVEITIPFYSTTTDPVPSLGLLKTYLEEPEIKLKISPEEYKKLKKTPILKELSAGGSAGGS [r12_1015_JUSTAS] | -0.229 ± 0.33 kcal/mol | 0.412 ± 0.26 kcal/mol | 0.234 ± 0.27 kcal/mol
SAGGSAGGTLTIDELKELFPDVTEVKIEEKEETYTDKNGKKRKVKTKVIKVKVNGKEVTIEVKESAGGSAGG [r6_138_TrROS_Hall] | 1.96 ± 0.05 kcal/mol | 0.534 ± 0.13 kcal/mol | 1.25 ± 0.19 kcal/mol
SAGKVYRIKATAPDGSTAIIEIPENGNAKIKIFYPNGVKEITINLDPNVKIEEILEKFPNFIISSIEEESAG [r5_259_TrMRF] | 5.01 ± 0.8 kcal/mol | 3.95 ± 0.22 kcal/mol | 4.15 ± 0.22 kcal/mol
SAGGSAGGSAGGPKIVRIAGNPETGILIIEFENGEKKVIELKQEEADKLAKENPGVEVLTSAGGSAGGSAGG [r7_175_TrMRF] | 1.03 ± 0.059 kcal/mol | 0.433 ± 0.056 kcal/mol | 0.777 ± 0.11 kcal/mol
SAGGSAGGSNFRIIEFDIKLKIPVMKMEPDPDGKPKMEMQPVKIPIKVTIFVFGNGIFIMITFSAGGSAGGS [r20_58_TrROS] | 3.42 ± 0.24 kcal/mol | 5.29 ± 0.16 kcal/mol | 5.11 ± 0.29 kcal/mol
SAGGSAGGSAGMETPVLYNVTVTPPDGSTTTYTVPEGLSEEEIRALLNVPASDTITFSPVSAGGSAGGSAGG [r11_340_JUSTAS] | 1.87 ± 0.042 kcal/mol | 2.02 ± 0.029 kcal/mol | 1.99 ± 0.033 kcal/mol
SAGGSAGGSMGLVVRREDGTLVLFRLGEDGLEEFTVPLEDWLTVPEEFFDAIPPEEVDEATPESAGGSAGGS [r12_793_TrMRF] | 1.4 ± 0.15 kcal/mol | 1.9 ± 0.092 kcal/mol | 1.69 ± 0.12 kcal/mol
SAGGSAGGSPEAVVVQTPDGRWLVFLRGPDGSVRPIVVPAGRPEALREVAEELGLTVENLDPVSAGGSAGGS [r12_891_TrMRF] | 1.83 ± 0.052 kcal/mol | 2.1 ± 0.04 kcal/mol | 2 ± 0.065 kcal/mol
SAGGGGSTTQPQQVELPGDRTATVTLHTHGDTPTATITLSEKESELGTVTVPVASTAEVAAAVAALASAGGS [r16_55_JUSTAS] | 1.26 ± 0.028 kcal/mol | 0.683 ± 0.029 kcal/mol | 0.973 ± 0.097 kcal/mol
SDWKIVDIEREGNWYTITIQFKNPDGNPWMVTLYMPPNGPYRVEVYPPGDGKEREVRVPMDDIDEILDAISA [r9_91_TrROS] | 1.33 ± 0.053 kcal/mol | 2.96 ± 0.038 kcal/mol | 2.49 ± 0.11 kcal/mol
SAGGETIPVVMYDPSTGKELTGEIPLKEALDLLAAGKKTAFIPAGGGPVKVHIEPLPDGTVLIVAESGSAGG [r13_171_TrMRF] | 0.576 ± 0.026 kcal/mol | 0.71 ± 0.021 kcal/mol | 0.636 ± 0.045 kcal/mol
SAGGSAMSEEALAEAERLVAERRAALEAAGVPVTVERVEVTVTVDTEVPTTNITVDLDVRLPDAPESAGGSA [r2_94_JUSTAS] | -0.0861 ± 0.034 kcal/mol | 1.38 ± 0.024 kcal/mol | 0.999 ± 0.027 kcal/mol
SAGGSAGGSAGKPEVKVEAEVEPYPETDLVVVNVRVYVDGVPVEIPFVVPPSVAEAFLKASAGGSAGGSAGG [r11_700_TrMRF] | 1.08 ± 0.03 kcal/mol | 1.26 ± 0.024 kcal/mol | 1.16 ± 0.048 kcal/mol
SAGGSAGGSMPVVRIKVRYFNKDGKPVKEKEITITLPAEEITADELRKRLEEAGYEIVEIEVVSAGGSAGGS [r12_611_TrROS_Hall] | 3.42 ± 0.08 kcal/mol | 3.63 ± 0.054 kcal/mol | 3.58 ± 0.061 kcal/mol
SAGGSAGGSAGGSVVPTTSYSPDGTLTLTTETVTPSSNGLTVTSSTTVRPLPTPASPAASAGGSAGGSAGGS [r10_1200_JUSTAS] | 1.35 ± 0.18 kcal/mol | 1.01 ± 0.039 kcal/mol | 1.04 ± 0.11 kcal/mol
MTTRTLTLTVETSSPEEAEAVREKIRAELGRPDVDVEILEVTFSPDGTVTITIRLAPGVPEERVRALLDALS [r1_485_JUSTAS] | 3.37 ± 0.05 kcal/mol | 2.266 ± 0.0084 kcal/mol | 2.79 ± 0.034 kcal/mol
SAGGSVRLELEGVNPETGERYRLEFELPPVPLPPVLVVPLEDLELLRRLGIPEDAAVFPELGLVVVASAGGS [r16_194_TrMRF] | 2.29 ± 0.082 kcal/mol | 2.76 ± 0.051 kcal/mol | 2.66 ± 0.12 kcal/mol
